# Assay results taken from PMC9015690 (Science signaling, 2021).
# B1: ACKR1^N-term, sixty-amino acid peptide corresponding to the extracellular N-terminus of ACKR1 (domain or fragment, UniProt Q16570 1-60, looked up)
# chain: MGNALHRAELSPSTENSSQLDFEDVWNSSYGVNDSFPDGDYGANLEAAAPAHSANLLDDS
# Target: Wild type CXCL12 (CXCL12-WT) (UniProt P48061-2 22-89)
# Assay: ITC
# Wild type CXCL12 (CXCL12-WT), sequence (P48061 22-89): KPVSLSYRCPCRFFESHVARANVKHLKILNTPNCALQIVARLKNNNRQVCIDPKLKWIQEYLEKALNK
binder,measurement,value
B1,Kd,4 µM
same,stoichiometry N,~0.5
